Experimental data: patent US20110189095A1, “CRKL TARGETING PEPTIDES” (The Board of Regents, of the University of Texas System, priority 2008, published 2011)

Test system: DU145 cells
Assay: Cell proliferation assay (WST-1)
Assay type: cell-based, human
Details: protein added exogenously 48 hours after siRNA transfection
Excerpt: In contrast, CRKL was not detected in control cell media as shown by immunoprecipitation either with anti-CRKL or with several control antibodies. […] Next, studies were undertaken to determine whether the CRKL secretion had any detectable effect(s) on cell proliferation and migration. […] As an additional control, it was shown that the decrease in cell proliferation could be rescued by exogenous CRKL (FIG. 8D) and only background levels of apoptosis (less than 1%) were detected in the CRKL siRNA knockdown cells or in serum-free medium cultured cells.
CRKL (mRNA accession # NM_005207), β1 integrin (mRNA accession # NM_002211), and control siRNAs were purchased (Santa Cruz, Ambion and Dharmacon). siRNA oligonucleotides sequences and corresponding manufacturers are summarized in (Table 3). Oligofectamine (Invitrogen) or DharmaFect (Dharmacon) were used to transfect siRNAs into DU145 cells (1-2×10^5 cells per well). The transfected cells were incubated for 48-72 hours prior to processing. […] Transfected cells were harvested and lysed in the presence of protease inhibitors. The tumor-homing phage binding activity was also examined in the CRKL knockdown cells. For rescue experiments, up to 1.5 μg of recombinant CRKL was exogenously added to CRKL siRNA transfected cells. […]

B1: exogenous CRKL: recombinant His-tag CRKL protein added exogenously (protein)
chain: MSSARFDSSDRSAWYMGPVSRQEAQTRLQGQRHGMFLVRDSSTCPGDYVLSVSENSRVSHYIINSLPNRRFKIGDQEFDHLPALLEFYKIHYLDTTTLIEPAPRYPSPPMGSVSAPNLPTAEDNLEYVRTLYDFPGNDAEDLPFKKGEILVIIEKPEEQWWSARNKDGRVGMIPVPYVEKLVRSSPHGKHGNRNSNSYGIPEPAHAYAQPQTTTPLPAVSGSPGAAITPLPSTQNGPVFAKAIQKRVPCAYDKTALALEVGDIVKVTRMNINGQWEGEVNGRKGLFPFTHVKIFDPQNPDENE
  rescue of decrease in cell proliferation in CRKL siRNA knockdown cells: rescued
